Results taken from US20190119362A1 (KANEKA, published 2019).
Substitutions are numbered along the chain they refer to. Read-outs that look alike come from different tables or passages of the source.

B1: LB1t-Wild.1d (other)
chain: GPLGSEEVTIKANLIFANGSTQTAEFKGTFEKATSEAYAYADTLKKDNGEYTVDVADKGYTLNIKFAG
notes: also called B1 domain
B2: LC4t-Wild.1d (other)
chain: GPLGSEEVTIKVNLIFADGKTQTAEFKGTFEEATAEAYRYADLLAKVNGEYTADLEDGGYTINIKFAGK
notes: also called C4 domain
B3: LB5t-Wild.1d (B5 domain of PpL 312 with deletion of N-terminal region) (other)
chain: GPLGSEQVTIKENIYFEDGTVQTATFKGTFAEATAEAYRYADLLSKEHGKYTADLEDGGYTINIRFAG
B4: LC1t-Wild.1d (other)
chain: GPLGSEEVTIKANLIFADGSTQNAEFKGTFAKAVSDAYAYADALKKDNGEYTVDVADKGLTLNIKFAGK
notes: also called C1 domain
B5: LB3t-Wild.1d (other)
chain: GPLGSEEVTIKANLIYADGKTQTAEFKGTFEEATAEAYRYADLLAKENGKYTVDVADKGYTLNIKFAG
notes: also called B3 domain
B6: LB4t-Wild.1d (other)
chain: B5 chain with E31A, V53A, V55L, A56E, K58G, L62I, K65R
notes: also called B4 domain

How the values were obtained:
Experiment in all cases: SPR (Biacore 3000), Fab immobilized on CM5, peptide as analyte, 1:1 fit, 25 C
[1] = biological target: T1, aTNFa-Fab (Fab fragment of Infliximab) (Chimeric antibody/IgG1κ)
T1 construct: domain: Fab fragment; also called Infliximab Fab; Remicade Fab
Protocol: (§1) The IgG-Fab was immobilized on a sensor tip CM5 by amine coupling method using N-hydroxysuccinimide (NHS) and N-ethyl-N′-(3-dimethylaminopropyl)carbodiimide hydrochloride (EDC), and ethanolamine was used for blocking. All of the sensor tip and reagents for immobilization were manufactured by GE Healthcare Bioscience. The IgG-Fab solution was diluted to about 10 times by using a buffer for immobilization (10 mM CK₃COOH—CH₃CONa, pH 4.5), and the Fab was immobilized on the sensor tip in accordance with the protocol attached to the Biacore 3000. In addition, a reference cell as negative control was also prepared by activating another flow cell on the tip with EDC/NHS and then immobilizing human serum albumin manufactured by Wako Pure Chemical Corporation. […] Binding response curves at the time of addition (association phase, for 1 minute) and after the addition (dissociation phase, for 1 minute) were sequentially obtained at a measurement temperature of 25° C. After each measurement, about 20 mM NaOH was added for washing. With respect to the obtained binding response curve from which the binding response curve of the reference cell was subtracted, a fitting analysis was conducted by 1:1 binding model using a software included in the system, “BIA evaluation”, and an affinity constant (KA=kₒₙ/koff) for human IgG-Fab was calculated.

[2] = biological target: T1, aTNFa-Fab (Fab fragment of Infliximab); remark: listed apart in the source
Protocol: as §1

[3] = biological target: T1, aTNFa-Fab (Fab fragment of Infliximab); remark: listed apart in the source
Protocol: as §1

Row | Binder | Ka [1] | koff [1] | kon [1] | Ka [2] | koff [2] | kon [2] | further results
1 | B1 | 30000 M⁻¹ | 0.481 s⁻¹ | 10000 M⁻¹ s⁻¹ |  |  |  | 
2 | B2 |  |  |  | 20000 M⁻¹ | 0.397 s⁻¹ | 10000 M⁻¹ s⁻¹ | 
3 | B3 |  |  |  |  |  |  | Ka [3]: 700000 M⁻¹; koff [3]: 0.215 s⁻¹; kon [3]: 150000 M⁻¹ s⁻¹
4 | B4 |  |  |  | 200000 M⁻¹ | 0.152 s⁻¹ | 20000 M⁻¹ s⁻¹ | 
5 | B5 | 100000 M⁻¹ | 0.305 s⁻¹ | 20000 M⁻¹ s⁻¹ |  |  |  | 
6 | B6 | 300000 M⁻¹ | 0.239 s⁻¹ | 70000 M⁻¹ s⁻¹ |  |  |  | 
